Read-outs that look alike come from different tables or passages of the source. One block for each molecule: values may come before it. Bridge positions count the residues as written; N and C are the ends. Square brackets hold non-standard residues; d marks the D form. Primed or numbered codes have the meaning given here. Triazole bridges read from a SMILES are 1,4-linked. Peptide text beside a SMILES is read from it. ξ: configuration not given here. Pra″ = alkyne-bearing residue joined to Azk by a CuAAC triazole staple; Azk = residue with azidated side chain, clicked to Pra; Pra′ = residue with alkynyl side chain, clicked to Azk; Lys(N3) = [N-]=[N+]=NCCCC[C@H](N)C(=O)O; Cha = N[C@@H](CC1CCCCC1)C(=O)O; Ile(3ξ) = CCC(C)[C@H](N)C(=O)O; S5 = C=CCCC[C@](C)(N)C(=O)O; Pra = C#CC[C@H](N)C(=O)O
What was measured:
human β2AR [1] = target: T1, human β2AR (Homo sapiens, UniProt P07550, N187E); assay: Radioligand binding assay (RLA) with human β2AR, 3H-dihydroalprenolol (DHA) as radioligand, isoproterenol (agonist) as cold competitor, in presence and absence of the peptidomimetic
T1 construct: made in house; host or cells: Sf9 insect cells (Bac-to-Bac baculovirus); membrane extracts
Protocol: β2AR365N constructs were expressed in Sf9 insect cells, using the Bac-to-Bac® Baculovirus Expression System. The membrane extracts were prepared from cells that expressed β2AR. Subsequently, the cell pellet was resuspended in a buffer (1 ml buffer/2×1E7 cells) containing 75 mM Tris pH 7.4, 12.5 mM MgCl2, 1 mM EDTA, Leupeptin and PMSF as protease inhibitors. Afterwards the cells were vortexed and homogenized in ice using a small volume Ultraturrax (6×10 sec). The cells were then centrifuged for 15 min at 16000 rcf, in a pre-cooled centrifuge (4° C.) and resuspended in the previous buffer containing 10% sucrose. Finally, the membranes were again homogenized in ice with the small volume Ultraturrax (3×10 sec). The protein concentration in the membrane fragments was determined using a Pierce BCA Protein Assay Kit and the protein concentration was extrapolated from the Bovine Serum Albumine standard curve.
To perform the radioligand competition binding assays, 96-well plates were used. For the assays on β2AR, the membrane extracts as well as the peptides were prepared in a binding buffer (75 mM Tris pH 7.4, 12.5 mM MgCl2, 1 mM EDTA, 0.2% BSA). The ligand (isoproterenol) and radioligand ([^3H]-dihydroalprenolol) were dissolved in ligand buffer (75 mM Tris pH 7.4, 12.5 mM MgCl2, 1 mM EDTA, 0.2% BSA and 0.1% ascorbic acid), at 1 mM and 2 nM, respectively. A ten-fold dilution series of the ligand was prepared to obtain a dose response curve. For each reaction 100 μl membrane extract, 50 μl ligand, 50 μl peptide or binding buffer containing 1% DMSO and 50 μl of radioligand was added to the V-bottom storage plate, with a total volume of 250 μl per well. Afterwards, the plates were incubated at room temperature for 2 h on a plate shaker (150 rpm). The samples were harvested into filter plates and washed with ice cold washing buffer (75 mM Tris pH 7,4) using the 96-well harvester. The plates were dried for 1 h at 50° C. and then sealed to allow the addition of 30 μl scintillation liquid to each well. Finally, the top of each plate was sealed and the plates were placed in a Wallac MICROBETA® Trilux scintillation counter and incubated for 30 min in the dark.
After the Microbeta scintillation counter, the experimental data was further analyzed using Graphpad Prism 6.0. After normalization of the raw data, a nonlinear regression was used to fit the data in a one-site binding model, with the total binding set as 100% and the non-specific binding between 0 and 5%. The IC50 values, obtained from the competition curves, were used to determine the shift for each peptide, which is the ratio of IC50 of the agonist test compound on the basal conformation (e.g. IC50 β2AR with no peptidomimetic) versus the active conformation (e.g. IC50 β2AR+peptidomimetic) of the receptor. For certain peptide analogues, a biphasic binding curve was observed and therefore fitted by a two-site model (nonlinear regression), resulting in two IC50 values (IC50Hi and IC50Lo) and a FractionHi, the fraction of receptors in the active state.
Synthesised peptidomimetics were evaluated using a radioligand binding assay (RLA) with a human β2AR, using ^3H-dihydroalprenolol (DHA) as the radioligand and increasing concentrations of isoproterenol (agonist) as cold competitor. In particular, the pharmacological stabilization of the receptor in the active conformation was evaluated by performing the radioligand displacement assay (RLA) in the presence and absence of the peptidomimetics. This validated assay quantifies the pharmacological stabilization of the receptor in the active conformation by comparing the affinities of an agonist for the basal versus the active GPCR conformer (Pardon et al. (2018) Angewandte Chemie International Edition 57, 5292-5295). During the assay, the binding affinity of an orthosteric agonist for the receptor, in particular isoproterenol for human β2AR, in presence and absence of the allosteric peptidomimetic was determined. […]

human β2AR [2] = target: T2, human β2AR (human, UniProt P07550 2-365); assay: cell-based or functional assay
human β2AR [3] = target: T2, human β2AR; assay: cell-based or functional assay; remark: listed apart in the source
human β2AR [4] = target: T2, human β2AR; assay: cell-based or functional assay; remark: listed apart in the source
human β2AR [5] = target: T2, human β2AR; assay: cell-based or functional assay; remark: listed apart in the source
human β2AR [6] = target: T2, human β2AR; assay: cell-based or functional assay; remark: listed apart in the source
human β2AR [7] = target: T2, human β2AR; assay: cell-based or functional assay; remark: listed apart in the source
human β2AR [8] = target: T2, human β2AR; assay: cell-based or functional assay; remark: listed apart in the source
[9] = Table 18a overview, averaged values of IC50 shift

- Shift (human β2AR [1]; Table 3, ratio IC50 β2AR alone / IC50 β2AR + peptidomimetic): 4
- Shift (human β2AR [1]; [9]): 4
Molecule: CCC(C)[C@@H]1NC(=O)[C@@H](NC(=O)[C@H](CC(=O)O)NC(=O)[C@H](CCCNC(=N)N)NC(=O)[C@H](CS)NC(=O)[C@H](CC(=O)O)NC(=O)[C@H](CC(N)=O)NC(=O)[C@H](Cc2ccccc2)NC(C)=O)CCC(=O)NCCCC[C@@H](C(=O)N[C@@H](Cc2c[nH]cn2)C(=O)N[C@@H](CC(C)C)C(=O)N[C@@H](CCCNC(=N)N)C(=O)N[C@@H](CCC(N)=O)C(=O)N[C@@H](Cc2ccc(O)cc2)C(=O)N[C@@H](CCC(=O)O)C(=O)N[C@@H](CC(C)C)C(=O)N[C@@H](CC(C)C)C(=O)O)NC(=O)[C@H](CCCNC(=N)N)NC(=O)[C@H](CCC(N)=O)NC1=O (stereo partly drawn) [compound 5, Ac-FNDCRD[EIQRK]HLRQYELL-OH] (HELM PEPTIDE1{[ac].F.N.D.C.R.D.E.[CCC(C)[C@H](N[*:1])C(=O)[*:2]].Q.R.K.H.L.R.Q.Y.E.L.L}$PEPTIDE1,PEPTIDE1,8:R3-12:R3$$$V2.0)

- Shift (human β2AR [1]; Table 5, ratio IC50 β2AR alone / IC50 β2AR + peptidomimetic): 7
- Shift (human β2AR [1]; [9]): 7
Molecule: CCC(C)[C@@H]1NC(=O)[C@@H](NC(=O)[C@H](CC(=O)O)NC(=O)[C@H](CCCNC(=N)N)NC(=O)[C@H](CS)NC(=O)[C@H](CC(=O)O)NC(=O)[C@H](CC(N)=O)NC(=O)[C@H](Cc2ccccc2)NC(C)=O)Cc2cn(nn2)CCCC[C@@H](C(=O)N[C@@H](Cc2c[nH]cn2)C(=O)N[C@@H](CC(C)C)C(=O)N[C@@H](CCCNC(=N)N)C(=O)N[C@@H](CCC(N)=O)C(=O)N[C@@H](Cc2ccc(O)cc2)C(=O)N[C@@H](CCC(=O)O)C(=O)N[C@@H](CC(C)C)C(=O)N[C@@H](CC(C)C)C(=O)O)NC(=O)[C@H](CCCNC(=N)N)NC(=O)[C@H](CCC(N)=O)NC1=O (stereo partly drawn) [compound 11, Ac-FNDCRD[PraIQRAzk]HLRQYELL-OH] (Ac-FNDCRD[Pra][Ile(3ξ)]QR[Lys(N3)]HLRQYELL-OH; triazole 7-11)

- Shift (human β2AR [1]; Table 4, ratio IC50 β2AR alone / IC50 β2AR + peptidomimetic): 2
- Shift (human β2AR [1]; [9]): 3
Molecule: CCC(C)[C@@H]1NC(=O)[C@@](C)(NC(=O)[C@H](CC(=O)O)NC(=O)[C@H](CCCNC(=N)N)NC(=O)[C@H](CS)NC(=O)[C@H](CC(=O)O)NC(=O)[C@H](CC(N)=O)NC(=O)[C@H](Cc2ccccc2)NC(C)=O)CCC/C=C\CCC[C@@](C)(C(=O)N[C@@H](Cc2c[nH]cn2)C(=O)N[C@@H](CC(C)C)C(=O)N[C@@H](CCCNC(=N)N)C(=O)N[C@@H](CCC(N)=O)C(=O)N[C@@H](Cc2ccc(O)cc2)C(=O)N[C@@H](CCC(=O)O)C(=O)N[C@@H](CC(C)C)C(=O)N[C@@H](CC(C)C)C(=O)O)NC(=O)[C@H](CCCNC(=N)N)NC(=O)[C@H](CCC(N)=O)NC1=O (stereo partly drawn) [compound 8, Ac-FNDCRD[S5IQRS5]HLRQYELL-OH] (Ac-FNDCRD[S5][Ile(3ξ)]QR[S5]HLRQYELL-OH; staple (Z) 7-11)

- IC50 (nM) of isoproterenol, [3H]-DHA RLA, peptidomimetic present (human β2AR [2]): 26 nM
- Shift (human β2AR [2]): 44
- Shift (averaged) (human β2AR [3]): 51
Molecule: Ac-KFN[Pra′]CRD[Azk]IQRMHLRQYELL-OH (triazole 4-8) [compound 41]

- Shift (averaged) (human β2AR [3]): 1
- IC50 (nM) of isoproterenol, [3H]-DHA RLA, peptidomimetic present (human β2AR [4]): 849 nM
- Shift (human β2AR [4]): 1
Molecule: Ac-FNDCRDIIQRMHLRQYELA-OH [compound 79]

- Shift (averaged) (human β2AR [5]): 9
Molecule: Ac-FN[Pra′]CRD[Azk]IQRMHLRQYELL-OH [compound 22]

- Shift (averaged) (human β2AR [3]): 27
- Fraction HI (%) (human β2AR [6]): 51%
- IC50 (nM) of isoproterenol, [3H]-DHA RLA, peptidomimetic present (human β2AR [6]): 28.9 nM
- Shift (human β2AR [6]): 55
Molecule: Ac-FNDCRDIIQRMHLRQYEWL-OH [compound 69]

- Fraction HI (%) (human β2AR [7]): 89%
- IC50 (nM) of isoproterenol, [3H]-DHA RLA, peptidomimetic present (human β2AR [7]): 4.7 nM
- Shift (human β2AR [7]): 350
- Shift (averaged) (human β2AR [3]): 350
Molecule: Ac-KKFN[Pra]CRD[Lys(N3)]IQRMHLRQYE[Cha]L-OH (triazole 5-9) [compound 74]

- Shift (averaged) (human β2AR [3]): 35
- Fraction HI (%) (human β2AR [6]): 62%
- IC50 (nM) of isoproterenol, [3H]-DHA RLA, peptidomimetic present (human β2AR [6]): 54.6 nM
- Shift (human β2AR [6]): 29
Molecule: Ac-FNDCRDIIQRMHLRQYEFL-OH [compound 68]

- Shift (averaged) (human β2AR [3]): 1
- IC50 (nM) of isoproterenol, [3H]-DHA RLA, peptidomimetic present (human β2AR [4]): 616 nM
- Shift (human β2AR [4]): 1
Molecule: Ac-FNDCRDIIQRMHLRQAELL-OH [compound 78]

- IC50 (nM) of isoproterenol, [3H]-DHA RLA, peptidomimetic present (human β2AR [2]): 31.3 nM
- Shift (human β2AR [2]): 37
- Shift (averaged) (human β2AR [3]): 37
Molecule: Ac-RFN[Pra′]CRD[Azk]IQRMHLRQYELL-OH (triazole 4-8) [compound 40]

- Shift (averaged) (human β2AR [3]): 5
- IC50 (nM) of isoproterenol, [3H]-DHA RLA, peptidomimetic present (human β2AR [4]): 175 nM
- Shift (human β2AR [4]): 5
Molecule: Ac-FNDCRDIIQRMHLRQYALL-OH [compound 77]

- Shift (averaged) (human β2AR [3]): 87
- Fraction HI (%) (human β2AR [6]): 91%
- IC50 (nM) of isoproterenol, [3H]-DHA RLA, peptidomimetic present (human β2AR [6]): 17.1 nM
- Shift (human β2AR [6]): 93
Molecule: Ac-KKKFN[Pra″]CRD[Lys(N3)]IQRMHLRQYEFL-OH (triazole 6-10) [compound 62]

- Fraction HI (%) (human β2AR [7]): 86%
- IC50 (nM) of isoproterenol, [3H]-DHA RLA, peptidomimetic present (human β2AR [7]): 2.6 nM
- Shift (human β2AR [7]): 616
- Shift (averaged) (human β2AR [3]): 373
Molecule: Ac-KFN[Pra′]CRD[Azk]IQRMHLRQYE[Cha]L-OH (triazole 4-8) [compound 50]

- Shift (averaged) (human β2AR [3]): 1
- IC50 (nM) of isoproterenol, [3H]-DHA RLA, peptidomimetic present (human β2AR [4]): 1070 nM
- Shift (human β2AR [4]): 1
Molecule: Ac-FNDCRDIIQRMHLRQYEAL-OH [compound 76]

- Shift (averaged) (human β2AR [3]): 32
- IC50 (nM) of isoproterenol, [3H]-DHA RLA, peptidomimetic present (human β2AR [8]): 25.6 nM
- Shift (human β2AR [8]): 32
B1: compound 82 (peptide)
peptide: FNDCRDIIQRMHLRQXELL
HELM: PEPTIDE1{[ac].F.N.D.C.R.D.I.I.Q.R.M.H.L.R.Q.[Cha].E.L.L}$$$$V2.0
SMILES: CC[C@H](C)[C@H](NC(=O)[C@H](CC(=O)O)NC(=O)[C@H](CCCNC(=N)N)NC(=O)[C@H](CS)NC(=O)[C@H](CC(=O)O)NC(=O)[C@H](CC(N)=O)NC(=O)[C@H](Cc1ccccc1)NC(C)=O)C(=O)N[C@H](C(=O)N[C@@H](CCC(N)=O)C(=O)N[C@@H](CCCNC(=N)N)C(=O)N[C@@H](CCSC)C(=O)N[C@@H](Cc1c[nH]cn1)C(=O)N[C@@H](CC(C)C)C(=O)N[C@@H](CCCNC(=N)N)C(=O)N[C@@H](CCC(N)=O)C(=O)N[C@@H](CC1CCCCC1)C(=O)N[C@@H](CCC(=O)O)C(=O)N[C@@H](CC(C)C)C(=O)N[C@@H](CC(C)C)C(=O)O)[C@@H](C)CC

Reference: patent publication US20240083958A1, “G PROTEIN PEPTIDOMIMETICS” (VRIJE UNIVERSITEIT BRUSSEL, priority 2020, published 2024)
